# B1: H1H155P (antibody, human IgG1, V domains shown)
# VH: QVQLVESGGGVVQPGRSLRLSCAASGFTFSIYGMHWVRQAPGKGLEWVTVISDDGSKKYYVDSVKGRFTLSRDNSKNTLYLQMNSLRAEDTAVYYCARDRITGTNWYGMDVWGQGTTVTVSS
# VL: DIQMTQSPSSLSASVGDRVTITCRASQDISNYLAWFQQKPGKAPKSLIFAASSLQSGGPSKFSGSGSGTDFTLTISSLQPEDFATYYCQQYNRYPFTFGPGTKVDIK
# notes: Human IgG1 Fc (H1H)
# B2: H1H157P (antibody, human IgG1, V domains shown)
# VH: QVQLVESGGGVVQPGRSLRLTCKASGFTFSIYGINWVRQASGKGLDWVAVISDDGSDKKYADSVKGRFTISRDNSKNTVYLEMSRLRSEDTAVYFCAKDRFTGNHYYGMDVWGQGTTVTVSS
# VL: DIQMTQSPSSLSASVGDRVSITCRASQDISDYLAWFQQKPGKAPKSLIYAASILQNGVPSRFSGSGSGTDFTLTISSLQPEDFALYYCHQYNRFPWTFGQGTKVEIK
# notes: Human IgG1 Fc (H1H)
# B3: H1H158P (antibody, human IgG1, V domains shown)
# VH: QVQLVESGGGVVQPGGSLRLSCAASGFTFSIYGIHWVRQAPGKGLEWVAVISDDGSNKKYADSVKGRFTISRDNSKNTLYLQMNSLRAEDTAIFYCAKDRITGTHYYGMDVWGQGTTVTVSS
# VL: DIQMTQSPSSLSASVGDRVSITCRASQDISNYLAWFQQKPGKAPKSLIYAASSLQSGVPSKFSGSGSGIEFTLTISSLQPEDFSTYYCHQYNRFPWTFGQGTKVEIK
# notes: Human IgG1 Fc (H1H)
# B4: H1H159P (antibody, human IgG1, V domains shown)
# VH: EVQLVESGGGLVQPGGSLRLSCAASRFTFTNYWMSWVRQAPGKGLEWVAKIKQDGSEKYYLDSVKDRFTISRDNAKNSLYLQMNSLRAEDTAVYYCASSSSWYDYYYGMDVWGHGTTVTVSS
# VL: EIVLTQSPDFQSVTPKEKVTITCRASQSIGTNLHWYQQRPDQSPKLLIKFASQSFSGVPSRFSGSGSGTDFTLTINSLEAEDAATYYCHQTNFLPHTFGGGTKVEIKR
# notes: Human IgG1 Fc (H1H)
# B5: H1H161P (antibody, human IgG1, V domains shown)
# VH: QVQLVESGGGVVQPGRSLRLSCAASGFTFSNYGMYWVRQAPGKGLEWVTFISYDGSNKNYVDSMKGRFTISRDNSKNTLYLQMNSLRVEDTAVYYCAKDRISGTPWYGMDVWGQGTTVTVSS
# VL: DIQMTQSPSSLSASVGDRVTITCRASQDIADYLAWFQQKPGKAPKSLIFAASSLESWVPLKFSGSGSGTDFTLTISSLQPEDFATYYCQQYSRFPITFGQGTKVEIK
# notes: Human IgG1 Fc (H1H)
# B6: H1H163P (antibody, human IgG1, V domains shown)
# VH: QVQLVESGGGVVQPGRSLRLSCAASGFTFSNYGMHWVRQAPGKGLEWVTLIEHDGSNKNYVDSVKGRFTISRDNSKNTLYLQMNSLRVEDTAVYYCAKDRITGTPWYGMDVWGQGTTVTVSS
# VL: DIQMTQSPSSLSASVGDRVTITCRASQDIADYLAWFQQKPGKAPKSLIFAASSLESWVPLKFSGSGSGTDFTLTISSLQPEDFATYYCQQYNRFPITFGQGTRLEIK
# notes: Human IgG1 Fc (H1H)
# B7: H1H169P (antibody, human IgG1, V domains shown)
# VH: EVQLVESGGGLVQPGGSLRLSCAASRFTFSTYWMSWVRQAPGKGLEWVAKIKQDGSEKYYLDSVKDRFTISRDNAKNSLYLQMNSLRAEDTAVYYCASSITWYDYYYGMDVWGHGTTVTVSS
# VL: EIVLTQSPDFQSVTPKEKVTITCRASQSIGSNLHWYQQKPDQSPNLLIKFASQSFSGVPSRFSGSGSGTDFTLTINSLEAEDAATYYCHQTNFLPHTFGGGTKVEIK
# notes: Human IgG1 Fc (H1H)
# Columns and labels:
# [1] = target: EGFR on A431 epidermoid carcinoma cells (human, UniProt P00533 25-1210); test: cell-based or functional assay
# [2] = target: T1, human monomeric EGFR (EGFR.mmh) (human, UniProt P00533 25-647); test: SPR 37C, mAb captured by anti-human Fc, EGFR.mmh analyte
# T1 construct: Soluble monomeric EGFR construct
# Description: (§1) Different concentrations of human monomeric (EGFR.mmh; SEQ ID NO:386) and dimeric (EGFR.mFc; SEQ ID NO:387) proteins were injected over the anti-EGFR monoclonal antibody captured surface at a flow rate of 50 μI/min. Antibody-antigen association was monitored for 4-5 minutes while dissociation of antigen from the captured monoclonal antibody surface was monitored for 10 min. Kinetic association (kₐ) and dissociation (kd) rate constants were determined by processing and fitting the data to a 1:1 binding model using Scrubber 2.0 curve fitting software.
# [3] = target: T2, human dimeric EGFR (EGFR.mFc) (human); test: SPR 37C, mAb captured by anti-human Fc, EGFR.mFc analyte
# T2 construct: Soluble dimeric EGFR construct
# Description: as §1
Binder,ADCC EC50 [1] [Molar],Maximum Cell Killing (%) [1] [%],Kd [2] [pM],koff [2] [s⁻¹],kon [2] [M⁻¹ s⁻¹],t1/2 [2] [h],Kd [3] [pM],koff [3] [s⁻¹],kon [3] [M⁻¹ s⁻¹],t1/2 [3] [h],binding result [2],binding result [3]
B1,1.67e-11,30,962,0.000169,176000,1.13,321,0.000106,329000,1.82,–,–
B2,2.27e-13,36,–,–,–,–,–,–,–,–,no binding,no binding
B3,2.32e-12,28,5900,0.000773,131000,0.25,24.1,9.84e-06,408000,19.6,–,–
B4,2.69e-09,60,682,0.000325,476000,0.6,3.44,5.63e-06,1.64e+06,34.2,–,–
B5,9.8e-12,38,655,0.000321,489000,0.6,1.59,2.76e-06,1.73e+06,69.8,–,–
B6,2.96e-10,48,834,0.000426,511000,0.45,1.17,2.12e-06,1.81e+06,90.8,–,–
B7,4.81e-09,27,1310,0.000869,665000,0.217,7.36,1.69e-05,2.29e+06,11.4,–,–
